{"source": "the DeepSol protein solubility set", "data": [{"experiment": "soluble on expression in E. coli; label from the status in PepcDB or PDB records", "values": [{"sequence": "MKITHCKLKKEVQKEPLRSFVPEVTARSAADILGIHPDSAALFYRKIRTVANHRLALAADGVFEGPAGPGGSYFGGRRKGRRGRGAAGKAVVFGIPKRNGRAYTVAADNAEPETLPPAVKKKIMPDGIVYADSPGSRGKLDAGGFTRCRINRSKEFADRRNHINGIGDFWNQAKRALRKYNGIDRKPFPPFLRECEFRLNFGTPSRQLKILRDRCGILEHHHHHH", "soluble on expression in E. coli": "not soluble"}, {"sequence": "MFGMSVFHSVLERLKAEQAEELTNEARGGWRGTVIGAAPGFIAESSAHAWASRGAVEQAYRALAADERSEPFSMPDYLTRTSLAEVASELALGEAETALTLAAKRRRFAAANHPDRLPVEARVNATLRMKLANMLIDEALRRIEKPTVTG", "soluble on expression in E. coli": "not soluble"}, {"sequence": "MGLSVMIMLMRSVKIKYLNLASLSNDRSADTSAAPHSPLRTRLVHPSLAFCPDVPSGKCRFAKFYGIGREPHRIRGADVLLFEGLKRVR", "soluble on expression in E. coli": "not soluble"}, {"sequence": "MSLSNKIVLTSPDRKTTRLLEKVRKEYDFKIDAYEATFDDAVELIRGKVAHREHWDPIIATGGATLGLLRDNLGRMPWVNIFPTEYDLVIALEQAKKTKKTIGLFNPGQIDTEAIKAVCSAIQIDAHIYRYNSWKEVLVQVEKAYQDGVEVAIGAGEKISSAVERKNIQYVSVTSGEYTIRRAFKYAQLLVDLKRNEKVSHEEGHHHHHH", "soluble on expression in E. coli": "not soluble"}, {"sequence": "MSLKTGRSNIIAFIVPDQNPFFTEVLTEISHECQKHHLHVAVASSEENEDKQQDLIETFVSQNVSAIILVPVKSKFQMKREWLKIPIMTLDRELESTSLPSITVDNEEAAYIATKRVLESTCKEVGLLLANPNISTTIGRKNGYNKAISEFDLNVNPSLIHYSDQQLGTNAQIYSGYEATKTLLSKGIKGIVATNHLLLLGALQAIKESEKEIKKDVIIVGFDDSYWNEIYTPKLTVISQPVKEMGQVAAKMIYKLIKGKDVTSIKLSTKLIIRESCSFNEGHHHHHH", "soluble on expression in E. coli": "soluble"}, {"sequence": "MGSDKIHHHHHHMDNDSTPRGTVCVTGATGYVGGRLVPRLLDHGWRVRALVRTPAKLLCRPWARHPRLDIIRGDLDDACSLVPALEGCDAVFYLVHSMNPHVTGRDTFAKADRAAASNMVRACDEARPGRIIYLSGLVPEGEELSPHLRSRAEVADILARGETPLTVLRAAQILGSGSASFEMVRYLVDRLPVMLTPRWVHSLCQPIAISNVLGYLEGCLDHPETMGQTYDIGGPDILSYRELFDIFAEVAQLRRRTIIPVPVLSPELSAHWINLVTPIPKALATPLIQGLRNRVVCADDRIRDIIPQRLLSCREAIGKALDRVREQSVPTCWTDAGRPDMPEWMTCGDASYAGGDLLECAYAIQVEAPPETVWKPVSAIGGETGWYHGDLLWRLRGMLDKLVGGPGLRRGRRHPTDIGVGDALDFWRVLDVRPGERLLLLAEMKVPGDALLEFRLAPTATGGTELWMLSWFLPRGLAGLAYWWALYPLHKGLFKGMLCGLAAATGAPVSREPWALPPRREFACALPLTDASAPGRRDTTAQ", "soluble on expression in E. coli": "not soluble"}, {"sequence": "MGSDKIHHHHHHWARTVWPRLYWFVEGKLYRWLQSFIAYWGYTAGYDVYEYGDDVTTYYRDERVLMMCNHQSTADVPTLMTVLQNKGVASRKTLWLMDVMFRWTPFGIIGNNHGDYFIQQGKATRDKELIRLKKHLHDVFWDRDRRWVILFPEGGFYYKRVESSQSYGKKNGFPHLLYTTLPRMGAVQAILEEVGPRTEDSDEPRERSNSKLKLLQDTVGAIREKKYVKGE", "soluble on expression in E. coli": "not soluble"}, {"sequence": "GDIVAVHPIRRGTAEAIEVVAHGDKKTSAIIGRRISGIKWPEGCHIAAVVRAGTGETIMGHHTETVIQDGDHIIFFVSRRRILNELEKLIQVKMGFFG", "soluble on expression in E. coli": "not soluble"}, {"sequence": "MPSYKLTYFAVRGLAEPARLLFHLAGVPFEDERLTFGDGSWEKLKDKTPMGQMPVLNVDGFEIPQSAAITRYLARKFGFAGKTPEEEAWVDAVVDQFKDFFGEFRKLIIAQRAGKSVEEIEKLTKEVINPAVSSFFKILNGLLEKSKSGYLIGDSITFADLFIAEDMQSLKNFGFLNATEQPKIAAHLEKVYSHPKLKSYIASRPVTEI", "soluble on expression in E. coli": "not soluble"}, {"sequence": "MSLTEISRFDAYPPTLTVNPIVPADAPATEHLVWTIAQAAEERKAGDLVILKVTDVSYLADYFVICTGFSRTQVRAIADNIEKQVELVHGQLPTHTEGNSESIWVLQDFGDVLVHTFMPEEREFYKLEAFWGHAQEQTLADIATAIGVAYNAPTSPEGHHHHHH", "soluble on expression in E. coli": "soluble"}, {"sequence": "MGSDKIHHHHHHMLNFTVGPVMSSEEVRAIGAEQVPYFRTTEFSSTMLENEKFMLEYAKAPEGSKAVFMTCSSTGSMEAVVMNCFTKKDKVLVIDGGSFGHRFVQLCEIHEIPYVALKLEHGKKLTKEKLYEYDNQNFTGLLVNVDETSTAVLYDTMMIGEFCKKNNMFFVCDCVSAFLADPFNMNECGADVMITGSQKVLACPPGISVIVLAPRGVERVEKSKVRTMYFDLKDALKNQERGQTPFTPAVGILLQINERLKEIKKHGGADAEVARIASQAADFRAKIKDLPFELVSESPANGVTSVHPTTANAYDIFLKLKDEYGIWICPNGGEMKDTIFRVGHIGALTHEDNTTLVNAFKDLQKRNLL", "soluble on expression in E. coli": "not soluble"}, {"sequence": "MLKKLKNFILFSSIFSPIAFAISCSNTGVVKQEDVSVSQGQWDKSITFGVSEAWLNKKKGGEKVNKEVINTFLENFKKEFNKLKNANDKTKNFDDVDFKVTPIQDFTVLLNNLSTDNPELDFGINASGKLVEFLKNNPGIITPALETTTNSFVFDKEKDKFYVDGTDSDPLVKIAKEINKIFVETPYASWTDENHKWNGNVYQSVYDPTVQANFYRGMIWIKGNDETLAKIKKAWNDKDWNTFRNFGILHGKDNSSSKFKLEETILKNHFQNKFTTLNEDRSAHPNAYKQKSADTLGTLDDFHIAFSEEGSFAWTHNKSATKPFETKANEKMEALIVTNPIPYDVGVFRKSVNQLEQNLIVQTFINLAKNKQDTYGPLLGYNGYKKIDNFQKEIVEVYEKAIK", "soluble on expression in E. coli": "soluble"}, {"sequence": "MVKETHRFETFTEEPIRLIGEEGEWLGDFPLDLEGEKLRRLYRDMLAARMLDERYTILIRTGKTSFIAPAAGHEAAQVAIAHAIRPGFDWVFPYYRDHGLALALGIPLKELLGQMLATKADPNKGRQMPEHPGSKALNFFTVASPIASHVPPAAGAAISMKLLRTGQVAVCTFGDGATSEGDWYAGINFAAVQGAPAVFIAENNFYAISVDYRHQTHSPTIADKAHAFGIPGYLVDGMDVLASYYVVKEAVERARRGEGPSLVELRVYRYGPHSSADDDSRYRPKEEVAFWRKKDPIPRFRRFLEARGLWNEEWEEDVREEIRAELERGLKEAEEAGPVPPEWMFEDVFAEKPWHLLRQEALLKEEL", "soluble on expression in E. coli": "soluble"}, {"sequence": "MGSDKIHHHHHHMTRNANKNNKECEKCWIFDLNQFKMITNSILEENTLVLEINQNYEVSVLMDYDVFLENGILTFKDFVNDNSKSAQVLTGSLKTGILNKMSQSISEGLLNKTTNRRTYYITEPTPLIGHTAFGLIDRGTNVIQVRGLSGCNINCPFCSVDEGIHSKSRKNDYYVDKDYLVSEYEKIADFKGYKKLEAHLDGQGEPSLYYPLPDLVQNLNEINSKNNGIVSIQTNGVHLTEKLIDDLEVAGLHRINLSINAMDEKFSKGLSGSKNYDIEKIMKIAEYIKNSKIHLLIAPLLLPNYNDEEFKKVLDFAVELEQKNPQNTINPITNKKNPIVGPQLCLTYQFGRKIPKMRVWDFPKFYNLLDVYHKEYLKDGINVDLEVPLHGFFGSHGRKRLPCPFKLNETISVTVLMDGRVNGEVIGASKNRVIQIIDCKTDINKLIGKRVKVKVLRVKDNVIVGSMVK", "soluble on expression in E. coli": "not soluble"}, {"sequence": "MGSDKIHHHHHHMKICLVSSMHPPHDKRVFDKEAVTLSSNGYKVLHLCPGTASDSGVFNDVEIVPYCRPSGIKGRLLQIFQLYRMANKINADVYHCNEVDSWFVGVLLKILRKKLCVFDVHEHYPSTFAESRFPKWIQPAVSSLVKLIFRLFLPFTDRLVLAKKSVSDDFPNSDSKKVLVRNFTPLSGINFTGVREVVPKGSDVTLIHLGLFGKIRGWPQTLEALKTMKQKNVRLVVIGDFNDGSRADFDSVVSAYGLNDRVVVYDWMPFEDAFKHLMQAHIGLVVFQPGILNHVYAMPHKMFDYMAAGMAVICPEFAMEVAPFVKEAKCGLLVDTANPADLAKKLDELVSSPDLIHEMGVRAQKAVQQHYNWEAEAKHLIQMYKELEELQ", "soluble on expression in E. coli": "not soluble"}, {"sequence": "MGSDKIHHHHHHAQQRTEYNRKGDEAMKRLDYSDAKMWYEEGVSQCDAYSIDQLTTIWLSNERMRPSMRSLMNKCLNCLTVKATEDDPDAISKLIIYYSEGIGTPKSEELATYWKEYQEILLKPAEPAAQPIDSAAVSPKKRMEFFAGYSYSIESPYGITVGGMGQRFGWYVRFKTNMSFMNYTDECNNQGQIIKFSNSEGESYELNTGKSSKTNSIAGTAGLIVKCFPWLYASVGLGYGERALLHSFTTHSYENYDSTREVWCRNIDSSYKGVAAEVDLMMKITNSVFISVGCNTVNFKYLDLNAGLGVFF", "soluble on expression in E. coli": "not soluble"}, {"sequence": "KGHAWTHSAGEPLRVVAIQGNIAQELKWDPNQVRAQLDLYRDLSLPQQDVDLIVWPETAVPILQDMASGYLGAMGQVADEKNAALITGVPVRERLADGKSRYFNGITVVGEGAGTYLKQKLVPFGEYVPLQDLLRGLIAFFDLPMSDFARGPADQPLLKAKGYQIAPYICYEVVYPEFAAALAAQSQVLLTVSNDTWFGTSIGPLQHLQMAQMRALESGRWMIRATNNGVTGLIDPYGRIVRQIPQFQQGILRGEVIPMQGLTPYLQYR", "soluble on expression in E. coli": "not soluble"}, {"sequence": "MGSDKIHHHHHHMFDDKMSGNAMNAEIELKLFFLPIYQESLINKLDSLDNAVPQGKRRLANGYFDTPDLQLRQWDMGLRVRGYDAHREQTIKTAGQVVGGIHSRPEYNVTIQADSPDLSLFPASIWPADADLAATQAQLTCIFHTDFYRRSWHVQIDNSVVEVALDIGEITANGQQEALCELEFELLSGDTEALLKLAMQVASVVPVRLGKASKAQRGYRLAGKAKPLDLTALEFLPLAEPRDSSTQDLTANCQILLETALERWQLLESMIAEESKPEACVALWWRMRACIRLLRMTLSQFELLNVTLSSRFMSIEKQLDFIEQAQALTALLGSQRGLFAKLGQHAQVKARLMAQLSEIHLTERLLSLWQQTEYGQLQLAIVEILLKVSAGEVDISNQPSLRQHADRAQQASWMAIVEVMPLNTVMTSANYLQVAAVLDESILVGHAYGSLYEAKSRDAFRAPWQDLVLGIKTLACYRAVQDASRELDIDLNEWLEDKQQSLLFAMESTRRNAMQQQAYW", "soluble on expression in E. coli": "not soluble"}, {"sequence": "MGSDKIHHHHHHMIKELKTLIAVAREGTFAAAGDRIGLTQAAVSAQMQRLEAQLGVELFDRKGRSAQLNRMGQQVLLQGQELVRLYGSLGNSATGSAPNVLVTIGAIASVQRSFLPDALALFHRQFPQCRTRVIPGLSMDLVNQVDAGEVDLAAIIRPPFSLHSDLRWTTLMREPYRLIVPADLQGEDWAELISSQPFIRYDRSSFGGRQVDRFLRQTHVSLREVCELDELDAIVKLVANGVGVALVPETATIQAWPAGVRAVNLGPHTFHRDIGLVHRARRSLTEPVNVLAQLLTAQVQDTQ", "soluble on expression in E. coli": "not soluble"}, {"sequence": "MSNTTGQWCDGNSVELLINGEDFYARVFECIRAARKEVLIETFIIFEDRIGEGLQQALLQAAANGAKVVVTVDDYGTSDLSSVFVKTMIDAGIQIQLFDPRPRFMGMRTNLFRRLHRKVVVIDGELGFIGGINYSVDHMTDTGVTAKQDYAVLVRGPIVGDIHHSALNMLSKVVRDKLPPIALKLDRAGDASMLLAER", "soluble on expression in E. coli": "not soluble"}]}]}
